# Test results from patent US20240269196A1, “RESPIRATORY TREATMENTS USING SALMONID OIL COMPOSITIONS” (Hofseth Biocare ASA, priority 2020, published 2024).
# B1: Apolipoprotein A-IV (protein, UniProt P06727 21-396, looked up)
# Apolipoprotein A-IV: EVSADQVATVMWDYFSQLSNNAKEAVEHLQKSELTQQLNALFQDKLGEVNTYAGDLQKKLVPFATELHERLAKDSEKLKEEIGKELEELRARLLPHANEVSQKIGDNLRELQQRLEPYADQLRTQVSTQAEQLRRQLTPYAQRMERVLRENADSLQASLRPHADELKAKIDQNVEELKGRLTPYADEFKVKIDQTVEELRRSLAPYAQDTQEKLNHQLEGLTFQMKKNAEELKARISASAEELRQRLAPLAEDVRGNLRGNTEGLQKSLAELGGHLDQQVEEFRRRVEPYGENFNKALVQQMEQLRQKLGPHAGDVEGHLSFLEKDLRDKVNSFFSTFKEKESQDKTLSLPELEQQQEQQQEQQQEQVQMLAPLES
# notes: positive control protein
# Experiments:
# [1] = tested on: House Dust Mite (HDM) extract-induced murine asthma model; assay: House Dust Mite (HDM) extract-induced murine asthma model: BAL fluid and spleen cellularity; format: in vivo, mice; details: 5 μg/animal, day 7 to day 14, N=5; for Percent eosinophil in spleen tissue (Mean): spleen on day 15
# Protocol: For this purpose, normal saline (NS) was used as a vehicle control and Apolipoprotein A-IV (ApoA-IV) was used as a positive control, respectively. The study involved induction of asthmatic condition in mice using HDM extract and simultaneous evaluation of the effects of OmeGo Salmon oil (CARDIO softgels; 20 or 60 μg/animal) and ApoA-IV (5 μg/animal; as a positive control) on cosinophil modulation in mice.
# On day 1, all 20 mice were anesthetized and sensitized intranasally with 1 μg HDM protein in 40 μL PBS. From day 7 to day 11, all 20 mice were challenged by daily intranasal application of 10 μg HDM protein in 40 μL PBS. Mice were randomly divided into four groups with five mice in each group for differential treatment from day 7 to day 14. From day 7 to day 14, each animal in the first group (G1) received 100 μL NS; each animal in the second group (G2) received 20 μg CARDIO in 100 μL NS; each animal in the third group (G3) received 60 μg CARDIO in 100 μL NS; and each animal in the fourth group (G4) received 5 μg ApoA-IV in 100 μL NS.
# The Broncho-Alveolar Lavage (BAL) fluid and spleen were collected from all 20 mice on day 15, and cellularity of the collected samples were analyzed by flow cytometry.
# [2] = tested on: allergic human eosinophils; assay: Apoptosis assay (Annexin V-FITC, flow cytometry); format: cell-based; details: Example 1; 3 μg/mL ApoA-IV; 18 hr incubation; IL-5 50 pM
# Protocol: (§1) The allergic human eosinophils were placed in RPMI 1640 medium supplemented with IL-5 (50 pM), 1% FBS and PenStrep in the presence of 3 μg/mL ApoA-IV (positive control), 100 μg/mL SO, and formulation vehicle (negative control). Aliquots were removed after 18 hr incubation, washed twice in PBS, and resuspended in binding buffer. The eosinophil cells were stained using the Annexin V-FITC Apoptosis Detection Kit I, (Sigma Aldrich) and immediately analyzed by flow cytometry. Each sample was acquired for 1 min, and the total number of eosinophils gated on a forward scatter/side scatter plot and the percentage of live cells (annexin Vneg) and apoptotic cells (annexin Vpos) was recorded.
# as §1, with “of” for “of 3 μg/mL ApoA-IV (positive control),”, “SO, heat, acid and base treated SO, krill oil, standard 18/12 fish oil,” for “SO,”, “Aliquots were removed after 18 hr incubation, washed twice in PBS, and resuspended in binding buffer.” left out, “recorded. […]” for “recorded.”
# [3] = tested on: CD11b on eosinophils (PMNL surface); assay: CD11b (integrin) upregulation assay, CCL11-stimulated PMNL, flow cytometry; format: cell-based, human; details: Example 1, 3 μg/mL ApoA-IV pretreatment 30 min
# Protocol: PMNL samples were pretreated with 3 μg/mL ApoA-IV (positive control), 100 μg/mL SO, and formulation vehicle (negative control) for 30 minutes and incubated with serial dilutions of CCL11 for 30 minutes at 37° C. Samples were stained with anti-CD16-PE-Cy5 and anti-CD11b-PE (ICRF44) antibodies. Eosinophils were identified as CD16 negative cells. CD11b upregulation was analyzed by flow cytometry.
# A precondition for eosinophil migration is upregulation of adhesion molecules such as the αmβ2 integrins (CD11b/CD18).
# PMNL samples were pretreated with 100 μg/mL SO, heat, acid and base treated SO, krill oil, standard 18/12 fish oil, and formulation vehicle (negative control) for 30 minutes and incubated with serial dilutions of CCL11 for 30 minutes at 37° C. Samples were stained with anti-CD16-PE-Cy5 and anti-CD11b-PE (ICRF44) antibodies. Eosinophils were identified as CD16 negative cells. CD11b upregulation was analyzed by flow cytometry.
# [4] = tested on: eosinophils in healthy donor PMNL samples; assay: Shape change assay: CCL11-stimulated eosinophil shape change in PMNL, flow cytometry (FSC); format: cell-based, human; details: Example 1, 3 μg/mL ApoA-IV pretreatment 30 min
# Protocol: PMNL samples were pretreated with 3 μg/mL ApoA-IV (positive control), 100 μg/mL SO, and formulation vehicle (negative control) for 30 minutes and stimulated with serial dilutions of CCL11 for 20 minutes at 37° C. Shape change was monitored by flow cytometry as the increase of forward scatter (FSC) and was expressed as percent of the vehicle response. Note, eosinophils are distinguishable from neutrophils by their SSC properties and autofluorescence.
# The chemotactic factor, CCL11, was used to prime eosinophils to immediately prepare for diapedesis through the endothelium by rearranging their cytoskeleton. This morphological change was detected by flow cytometry as an increase in the forward scatter properties of these cells. The effects of SO at 100 μg/mL was studied and compared to the known effect of 3 μg/mL ApoA-IV on eosinophil shape change in healthy donor PMNL samples. The pretreated samples were stimulated with serial dilutions of CCL11, and shape change was monitored by flow cytometry.
# PMNL samples were pretreated with 100 μg/mL SO, heat, acid and base treated SO, krill oil, standard 18/12 fish oil, and formulation vehicle (negative control) for 30 minutes and stimulated with serial dilutions of CCL11 for 20 minutes at 37° C. Shape change was monitored by flow cytometry as the increase of forward scatter (FSC) and was expressed as percent of the vehicle response. Eosinophils were distinguishable from neutrophils by their SSC properties and auto-fluorescence.
# The chemotactic factor, CCL11, was used to prime eosinophils to immediately prepare for diapedesis through the endothelium by rearranging their cytoskeleton. This morphological change was detected by flow cytometry as an increase in the forward scatter properties of these cells. The effects of SO at 100 μg/mL was studied and compared to the various processing treatments on SO, krill oil and standard 18/12 fish oil on eosinophil shape change in healthy donor PMNL samples. The pretreated samples were stimulated with serial dilutions of CCL11, and shape change was monitored by flow cytometry.
molecule,measurement,setting,value
B1,Cell count in BAL fluid: Eosinophil count (Mean),[1]; BAL on day 15,28220
same,Percent eosinophil in spleen tissue (Mean),[1],2.34%
same,Percent eosinophil in spleen tissue (Mean),[1]; listed as ApoA-IV,significantly decreased
same,percentage of apoptotic cells (annexin Vpos),[2],60±3.8%
same,percentage of live cells (annexin Vneg),[2],31.5±2.3%
same,CB11b change (100% as baseline) on PMNL surface,[3]; CCL11 0.01 nM,95%
same,CB11b change (100% as baseline) on PMNL surface,[3]; CCL11 0.50 nM,103%
same,CB11b change (100% as baseline) on PMNL surface,[3]; CCL11 1.00 nM,122%
same,CB11b change (100% as baseline) on PMNL surface,[3]; CCL11 2.50 nM,125%
same,CB11b change (100% as baseline) on PMNL surface,[3]; CCL11 5.00 nM,125%
same,CB11b change (100% as baseline) on PMNL surface,[3]; CCL11 10.00 nM,114%
same,Shape change (100% as baseline) of PMNL,[4]; CCL11 0.05 nM,100%
same,Shape change (100% as baseline) of PMNL,[4]; CCL11 0.10 nM,103%
same,Shape change (100% as baseline) of PMNL,[4]; CCL11 0.25 nM,105%
same,Shape change (100% as baseline) of PMNL,[4]; CCL11 0.50 nM,106%
same,Shape change (100% as baseline) of PMNL,[4]; CCL11 0.75 nM,108%
same,Shape change (100% as baseline) of PMNL,[4]; CCL11 1.00 nM,109%
same,Shape change (100% as baseline) of PMNL,[4]; CCL11 2.50 nM,109%
same,Shape change (100% as baseline) of PMNL,[4]; CCL11 5.00 nM,107%
